Consider two substances from publication PMC9057628.

Test [1] addresses recombinant full-length human TTRV122I with N-terminal AviTag (human) (UniProt P02766). Kind of test: SEC; time series: TTR in 1M urea pH 7.6 at room temperature on a rotating platform for 1 hour to 7 days; oligomers between 200 and 600 kDa; also with 100 uM H2O2 or 5 mM DTT.
In test [2] the target is recombinant full-length human TTRWT with N-terminal AviTag (human) (UniProt P02766). The description is as above.

With “recombinant full-length human TTRV122I with N-terminal AviTag (from UniProt P02766 21-147) (natural protein)”, the stoichiometry N (protein subunits) in test [1] was 15.

Take “recombinant full-length human TTRWT with N-terminal AviTag (from UniProt P02766 21-147) (natural protein)”: the stoichiometry N (protein subunits) in test [2] worked out at 10.
